# Test results as given in patent US20250302816A1, “DISRUPTION OF EPITHELIAL BARRIERS FOR MOLECULAR DELIVERY ENHANCEMENT OR EXTRACTION OF EXTRACELLULAR FLUIDS” (The University of Nottingham, priority 2022, published 2025).
# What was measured:
# [1] = tested on: ex vivo porcine skin
# [2] = tested on: laser-induced mouse model of CNV; test: Laser-induced mouse model of choroidal neovascularisation (CNV); type: in vivo, C57BL/6J mice; settings: day 7, topical drops to both eyes twice daily, bevacizumab 250 μg/mL
# Procedure: FIG. 7: Anti-angiogenic efficacy of Bevacizumab with and without 3OC12-HSL (agent) in a laser-induced mouse model of CNV.in a mouse model of choroidal neovascularisation. C57BL/6J mice (n=6 per group) were subjected to laser photocoagulation (Merilas, 532α, 450 mW, 130 ms, 75 μm, 4 lesions per eye) on day 0. Post lasering animals received twice daily topical drops to both eyes10 μL of bevacizumab (250 μg/mL) with/without 3OC12-HSL and control vehicle only) for a total of 14 days. FFA was performed on days 7 and 14 and lesion area measured using Fiji software, n=lesions (mice). All data and graphs were calculated with Fiji and GraphPad Prism v8 and statistical analysis using an t-test, with Welch's correction, * p=<0.05, ** p=<0.01. Data bars represent mean±SEM. Scale bar 200 μm.
# Six to eight week-old female C57BL/6J mice (16-20 g, Charles River, UK) were anaesthetized with an intraperitoneal (i.p.) injection of 50 mg/kg ketamine hydrochloride (Ketaset®, 100 mg/mL) and 0.5 mg/kg medetomidine hydrochloride (Sedastart®, 1 mg/mL). The pupils were dilated with a drop of 5% phenylephrine hydrochloride and 0.8% tropicamide to each eye. […] Fundus angiograms were imported into Fiji software and lesions were traced by a masked observer and lesion area was quantified over treatment time and compared between treatment groups. […]
# [3] = tested on: ex-vivo rat eyes
# Procedure: In order to investigate the efficacy of 3OC12-HSL as drug delivery enhancer in intact tissue, bevacizumab (250 μg/mL: […]) and aflibercept (40 mg/mL: 348 μM) were applied with and without 3OC12-HSL to ex-vivo rat eyes, and the distribution of drugs was visualised within sagittal ocular cryosections by confocal microscopy. A further set of experiments tested efficacy of 3OC12-HSL via ex vivo porcine skin.
# Six hooded rats with pigmented eyes, weighing 280-300 g and aged 7-8 weeks were provided by Bio-Support Unit at the Queen's Medical Centre, Nottingham. Experiments were designed to be performed ex-vivo, immediately post-sacrifice, during experiments supporting other studies. Tested therapies (bevacizumab (250 μg/mL), aflibercept (250 μg/mL) with/without 3OC12-HSL (200 μM) were immediately applied post-sacrifice in (50 μL) to the corneal surface of each animal for a period of 1 hour, before being washed off using ice-cold PBS. The eyeballs were enucleated, immersed in OCT, and flash-frozen in isopentane cooled by liquid N2 before being stored at −80° C. for further processing.
# OCT-embedded eyes were cut into 15 μm tissue sections using a cryostat (Leica 3050) and mounted on gelatin-coated slides, at cutting temperatures between −15 and −23° C. […]
substance,measurement,setting,value
Bevacizumab: recombinant humanized monoclonal IgG1 antibody which binds to human VEGF (MW 149 kDa),penetration through skin,[1],5 mm
same,average lesion area,[2],2.86±0.47×10^4
same,fluorescence in eye sections (CLSM),[3],No fluorescence was detected
